The values below come from patent US20160083466A1 (Regeneron, published 2016).

B1: H4H10862P (antibody, human IgG4, V domains shown)
VH: QVQLQESGPGLVKPSETLSLTCTVSGGSISSYFWSWIRQAPGKGLEWIGFIDYSGSTNYNPSLKSRVTISVDTSKNQFSLKLNSVTAADTAVYYCARQEIINFELNWFDPWGQGTLVTVSS
VL: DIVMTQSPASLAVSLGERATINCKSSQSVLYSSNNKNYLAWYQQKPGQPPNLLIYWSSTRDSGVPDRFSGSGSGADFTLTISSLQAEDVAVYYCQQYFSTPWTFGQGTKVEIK
notes: H4H prefix = human IgG4 Fc
B2: H2aM11008N (antibody, V domains shown)
VH: QVQLQESGPGLVKPSETLSLTCTVSGGSISSHYWSWIRQPPGKGLEWIGFIYYSGSTNFNPSLKSRVTISIDTSKNQFSLKLSSVTAADTAVYYCARHDYNDYELNYFDLWGRGTLASVSS
VL: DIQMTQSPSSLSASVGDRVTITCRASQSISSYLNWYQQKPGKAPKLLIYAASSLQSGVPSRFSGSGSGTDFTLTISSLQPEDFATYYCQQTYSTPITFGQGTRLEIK
notes: also called H2M11008N
B3: H4H10883P (antibody, human IgG4, V domains shown)
VH: QVQLQESGPGLVKSSETLSLTCTVSGGSISSYYWSWIRQPPGKGLEWIGFIYYSGSTNYNPSLKSRVTFSVDTSKNHFSLKLNSVTATDTAVYYCARHYFDSGTYELGPFDYWGQGTLVTVSS
VL: DIVMTQSPDSLAVSLGERATINCKSSQNILLTSSNKNYLTWYQQKPGQPPKLLIYWASIRESGVPDRFSGSGSGTDFTLTISSLQAEDVALYFCQQYYITPFTFGPGTKVDIK
notes: H4H prefix = human IgG4 Fc
B4: H4H10901P (antibody, human IgG4, V domains shown)
VH: QLQLQESGPGLVRPSETLSLTCSVSSGSIRSSNYYWGWIRQPPGKGLEWIGNIYYSGNTFYNPSLKGRVTISVDTSKNQFSLKLSSVTATDTAVYYCARQGYSDYELNWFDPWGQGTLVTVSS
VL: DIVMTQSPDSLVLSLGERATFNCKSSQSVLDSSNNKNYLAWYQQKPGQPPKLLIYWASTRESGVPDRFSGSGSGTDFSLTISSLQAEDVALYYCQQFYNSPWTFGQGTKVEIK
notes: H4H prefix = human IgG4 Fc
B5: H4H10861P (antibody, human IgG4, V domains shown)
VH: QVQLQESGPGLVKPSETLSLTCTVSGASISNYYWSWIRQPPGKGLEWIGYIFYSGNTNYNPSLKSRVTISVDTSKNQFSLKLSSVTAADTAVYYCARVRFSDYELNWFDPWGQGTLVTVSS
VL: DIVMTQSPDSLAVFLGERATINCRSSQSVFLGSNNKNYLAWYQQKPGQPPKLLIYWASSRESGVPDRFSGSGSGTDFTLTINSLQAEDVAVYYCQQYFITPLTFGGGTKVEIK
notes: H4H prefix = human IgG4 Fc
B6: H2aM10690N (antibody, V domains shown)
VH: QVQLVQSGAEVKKPGASVKVSCKASGYTFTSYGISWVRQAPGQGLEWMGWISAYNGNTNYAQKLQGRVTMTTDTSTSTAYMELRSLRSDDTAVYYCARVPITGTTWFDPWGQGTLVTVSS
VL: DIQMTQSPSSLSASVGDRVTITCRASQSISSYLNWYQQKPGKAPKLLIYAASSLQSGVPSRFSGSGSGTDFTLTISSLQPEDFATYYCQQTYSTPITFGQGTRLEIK
notes: also called H2M10690N
B7: H1M11009N (antibody, mouse IgG1, V domains shown)
VH: EVQLVESGGGLVEPGGSLRLSCVASGFTFSNAWMNWVRQAPGKGLEWVGHIERKTDGGTTDFAAPVKGRFTISRDDSKNTLYLQMNSLKTEDTAVYYCTTVGPYSVPFDYWGQGTLVTVSS
VL: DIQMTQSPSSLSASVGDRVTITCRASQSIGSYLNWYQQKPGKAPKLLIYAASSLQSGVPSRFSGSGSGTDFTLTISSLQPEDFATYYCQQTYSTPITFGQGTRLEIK
notes: H1M prefix = mouse IgG1 Fc
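Throughout, for 100 nM Monkey IL-25-MMH Bound (RU): biacore 4000 surface plasmon resonance biosensor measuring binding of IL-25-MMH to purified anti-IL-25 antibodies.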

The first assay addresses T1, human IL-25 expressed with a C-terminal myc-myc-hexahistidine tag (human).
T1 construct: also called hIL-25-MMH; Human IL-25-MMH
T1 chain: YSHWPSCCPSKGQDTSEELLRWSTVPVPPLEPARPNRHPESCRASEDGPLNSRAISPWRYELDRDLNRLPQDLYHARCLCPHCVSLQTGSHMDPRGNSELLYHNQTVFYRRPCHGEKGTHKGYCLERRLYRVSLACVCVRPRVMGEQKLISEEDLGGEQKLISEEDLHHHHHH
Nature of the assay: competition ELISA, 2 nM hIL-25-MMH binding to coated hIL-17RB-hFc. A general note: An ELISA detects its analyte on a solid surface through an enzyme-linked reagent.
Experimental: (§1) Data analysis was performed using a sigmoidal dose-response model within Prism™ software (GraphPad). […] The absorbance values of the wells containing the highest concentration for each antibody were used to determine the percent maximum blockade.
For the molecule B1, the “% Maximum blocking of 200 nM antibody” value turned out to be 89%.

For B2, the “% Maximum blocking of 200 nM antibody” value is 98%.

For the molecule B3, the “% Maximum blocking of 200 nM antibody” value worked out at 93%.

Consider B4, for which the “% Maximum blocking of 200 nM antibody” value is 91%.

B5: the “% Maximum blocking of 200 nM antibody” value came out at 92%.

For B6, the “% Maximum blocking of 200 nM antibody” value was 70% and the IC50 (as a rule, the concentration that gives 50% inhibition) was found to be 31 nM.

A further assay has as its target T1, human IL-25 expressed with a C-terminal …. Nature of the assay: competition ELISA, 2 nM hIL-25-MMH binding to coated hIL-17RB-hFc; (*) below theoretical bottom of the assay.
Experimental: as §1
Turning to B1, the IC50 stood at 0.24 nM.

The molecule B2 displayed an IC50 of 0.43 nM.

B3 yielded an IC50 of 0.2 nM.

Consider B4, for which the IC50 came out at 0.23 nM.

For B5, the IC50 came out at 0.2 nM.

The next assay has the same target. Nature of the assay: BLI Octet, hIL-25-MMH captured on anti-Penta-His sensor, 25C. (In general: BLI is a label-free optical method that tracks binding on a fibre tip over time.)
Experimental: Binding competition between anti-IL-25 monoclonal antibodies was determined using a real time, label-free bio-layer interferometry assay on an Octet QK384 biosensor (Pall ForteBio Corp.).
The biosensors were washed in HBST kinetics buffer in between every step of the experiment. The real-time binding response was monitored during the course of the experiment and the binding response at the end of every step was recorded.
With B1, the “50 ug/mL mAb-1 Binding (nm)” value came to 0.83 nm.

As to B2, the “50 ug/mL mAb-1 Binding (nm)” value was found to be 0.81 nm.

For B3, the “50 ug/mL mAb-1 Binding (nm)” value was 0.7 nm.

With B4, the “50 ug/mL mAb-1 Binding (nm)” value amounted to 0.67 nm.

On to B7, for which the “50 ug/mL mAb-1 Binding (nm)” value stood at 1.42 nm.

For the molecule B5, the “50 ug/mL mAb-1 Binding (nm)” value turned out to be 0.88 nm.

Take B6: the “50 ug/mL mAb-1 Binding (nm)” value was found to be 1.38 nm.

The target of another assay is T2, monkey IL-25 expressed with a C-terminal myc-myc-hexahistidine tag (M. fascicularis (cynomolgus monkey)).
T2 construct: also called Monkey IL-25-MMH; MfIL-25-MMH
T2 chain: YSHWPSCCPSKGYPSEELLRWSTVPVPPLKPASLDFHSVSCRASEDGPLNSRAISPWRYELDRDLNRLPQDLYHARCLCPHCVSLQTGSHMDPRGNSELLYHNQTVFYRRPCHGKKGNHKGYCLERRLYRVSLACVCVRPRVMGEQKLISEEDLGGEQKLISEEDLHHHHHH
Nature of the assay: SPR Biacore, antibody captured, 37C. In general terms: Surface plasmon resonance follows binding to a sensor surface in real time, without labels.
For B1, the “100 nM Monkey IL-25-MMH Bound (RU)” value turned out to be 70 RU; binding was characterised by a dissociation constant (Kd) of 0.0589 nM; the koff (commonly the rate constant with which the complex falls apart) was 0.000172 s⁻¹; the kon – broadly, a measure of how fast the partners come together – came to 2.93e+06 M⁻¹ s⁻¹. The t½ (as a rule, how long it takes for the measured level to halve) is 67 min.

Turning to B3, the “100 nM Monkey IL-25-MMH Bound (RU)” value came to 72 RU, binding was put at a Kd of 0.0239 nM, the koff was determined as 4.18e-05 s⁻¹ and the kon is 1.75e+06 M⁻¹ s⁻¹. The t½ was determined as 276 min.

Turning to B4, the “100 nM Monkey IL-25-MMH Bound (RU)” value was 64 RU; the affinity, expressed as Kd, was 0.0464 nM; the koff was determined as 0.000165 s⁻¹; the kon stood at 3.55e+06 M⁻¹ s⁻¹. Besides, the t½ stood at 70 min.

On to B5, for which the “100 nM Monkey IL-25-MMH Bound (RU)” value came out at 61 RU, the Kd (usually the constant that tells how readily two partners part at equilibrium) was 0.0236 nM, the koff turned out to be 7.14e-05 s⁻¹ and the kon came out at 3.03e+06 M⁻¹ s⁻¹. In addition, the t½ came out at 162 min.

The target in another assay is T3, mouse IL-25 expressed with a C-terminal myc-myc-hexahistidine tag (mouse).
T3 construct: also called Mouse IL-25-MMH; mIL-25-MMH
T3 chain: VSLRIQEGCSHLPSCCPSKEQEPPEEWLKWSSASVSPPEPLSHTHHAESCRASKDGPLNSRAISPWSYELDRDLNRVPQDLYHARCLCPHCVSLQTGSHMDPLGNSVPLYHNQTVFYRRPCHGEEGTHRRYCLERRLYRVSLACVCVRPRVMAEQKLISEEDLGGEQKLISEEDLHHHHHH
Nature of the assay: SPR Biacore, antibody captured, 37C.
Experimental: (§2) Equilibrium dissociation constants (KD values) for IL-25 binding to purified anti-IL-25 antibodies were determined using a real-time surface plasmon resonance biosensor assay on a Biacore 4000 instrument (GE Healthcare). […] All the IL-25 reagents were expressed with a C-terminal myc-myc-hexahistidine tag (referred to herein as “IL-25-MMH”). […] Kinetic association (kₐ) and dissociation (kd) rate constants were determined by fitting the real-time sensorgrams to a 1:1 binding model using Scrubber 2.0c curve fitting software.
Consider B1, for which the “100 nM Mouse IL-25-MMH Bound (RU)” value is 2 RU.

For B2, the “100 nM Mouse IL-25-MMH Bound (RU)” value was determined as 2 RU.

Consider B3, for which the “100 nM Mouse IL-25-MMH Bound (RU)” value was 1 RU.

For B4, the “100 nM Mouse IL-25-MMH Bound (RU)” value stood at 2 RU.

Regarding B7, the “100 nM Mouse IL-25-MMH Bound (RU)” value was 2 RU.

Turning to B5, the “100 nM Mouse IL-25-MMH Bound (RU)” value was determined as 2 RU.

As for B6, the “100 nM Mouse IL-25-MMH Bound (RU)” value was 27 RU; the affinity, expressed as Kd, was 81.7 nM; the off-rate (koff) was 0.00778 s⁻¹; the kon was 95300 M⁻¹ s⁻¹. The t½ was 1.5 min.

The target of a further assay is T4, rat IL-25 expressed with a C-terminal myc-myc-hexahistidine tag (rat).
T4 construct: also called Rat IL-25-MMH
T4 chain: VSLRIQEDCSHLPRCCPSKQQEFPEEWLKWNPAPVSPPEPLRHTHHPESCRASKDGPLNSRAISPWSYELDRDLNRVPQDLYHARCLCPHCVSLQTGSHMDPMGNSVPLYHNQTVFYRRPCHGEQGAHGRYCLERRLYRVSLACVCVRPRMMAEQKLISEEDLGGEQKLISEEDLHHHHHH
Briefly: SPR Biacore, antibody captured, 25C.
For B1, the “100 nM Rat IL-25-MMH Bound (RU)” value was 1 RU and the binding result is “no binding (tested: 100 nM)”.

As for B2, the “100 nM Rat IL-25-MMH Bound (RU)” value stood at 0 RU and the binding result was “no binding (tested: 100 nM)”.

In the case of B3, the “100 nM Rat IL-25-MMH Bound (RU)” value stood at 0 RU.

Regarding B4, the “100 nM Rat IL-25-MMH Bound (RU)” value is 0 RU and the binding result was “no binding (tested: 100 nM)”.

For B7, the “100 nM Rat IL-25-MMH Bound (RU)” value is -1 RU.

On to B5, for which the “100 nM Rat IL-25-MMH Bound (RU)” value is 0 RU and the binding result is “no binding (tested: 100 nM)”.

On to B6, for which the “100 nM Rat IL-25-MMH Bound (RU)” value turned out to be 18 RU, the Kd was 103 nM, the koff was 0.0095 s⁻¹ and the kon is 91800 M⁻¹ s⁻¹. The t½ is 1.2 min.

The target in another assay is T4, rat IL-25 expressed with a C-terminal …. Briefly: SPR Biacore, antibody captured, 37C.
Experimental: as §2
For the molecule B1, the “100 nM Rat IL-25-MMH Bound (RU)” value stood at 1 RU.

On to B2, for which the “100 nM Rat IL-25-MMH Bound (RU)” value was 3 RU.

Regarding B3, the “100 nM Rat IL-25-MMH Bound (RU)” value worked out at 0 RU.

For B4, the “100 nM Rat IL-25-MMH Bound (RU)” value amounted to 1 RU.

On to B7, for which the “100 nM Rat IL-25-MMH Bound (RU)” value was 3 RU.

For B5, the “100 nM Rat IL-25-MMH Bound (RU)” value came out at 2 RU.

As to B6, the “100 nM Rat IL-25-MMH Bound (RU)” value amounted to 20 RU, the Kd was determined as 115 nM, the koff worked out at 0.0193 s⁻¹ and the kon was found to be 168000 M⁻¹ s⁻¹. This molecule showed a t½ of 0.6 min.

Another assay concerns the target T3, mouse IL-25 expressed with a C-terminal …. Briefly: SPR Biacore, antibody captured, 25C.
Experimental: as §2
For B1, the “100 nM Mouse IL-25-MMH Bound (RU)” value was 0 RU and the binding result is recorded as “no binding (tested: 100 nM)”.

For B2, the “100 nM Mouse IL-25-MMH Bound (RU)” value was -1 RU.

Regarding B3, the “100 nM Mouse IL-25-MMH Bound (RU)” value worked out at 0 RU.

With B4, the “100 nM Mouse IL-25-MMH Bound (RU)” value was 1 RU and the binding result was “no binding (tested: 100 nM)”.

B7: the “100 nM Mouse IL-25-MMH Bound (RU)” value was 0 RU and the binding result was “no binding (tested: 100 nM)”.

As to B5, the “100 nM Mouse IL-25-MMH Bound (RU)” value turned out to be 0 RU and the binding result is “no binding (tested: 100 nM)”.

Take B6: the “100 nM Mouse IL-25-MMH Bound (RU)” value amounted to 17 RU, the Kd worked out at 82.3 nM, the koff is 0.00319 s⁻¹ and the kon stood at 38800 M⁻¹ s⁻¹. In addition, the t½ amounted to 4 min.

The next assay addresses T2, monkey IL-25 expressed with a …. Nature of the assay: cell-based or functional assay.
For the molecule B1, the “IC50, luciferase reporter cells, 12 pM MfIL-25-MMH” value (“IC50 … 12 pM MfIL-25-MMH” for short) was found to be 3.3e-11 M.

Regarding B3, the “IC50 … 12 pM MfIL-25-MMH” value was determined as 3.9e-11 M.

Take B4: the “IC50 … 12 pM MfIL-25-MMH” value was determined as 3.8e-11 M.

For the molecule B5, the “IC50 … 12 pM MfIL-25-MMH” value turned out to be 3.7e-11 M.

The target of another assay is T1, human IL-25 expressed with a C-terminal …. Briefly: cell-based or functional assay.
With B1, the “IC50, luciferase reporter cells, 5 pM hIL-25-MMH” value (from here on “IC50 … 5 pM hIL-25-MMH”) is 8.4e-11 M.

As to B2, the “IC50 … 5 pM hIL-25-MMH” value turned out to be 1.8e-09 M.

For the molecule B3, the “IC50 … 5 pM hIL-25-MMH” value worked out at 1.4e-10 M.

On to B4, for which the “IC50 … 5 pM hIL-25-MMH” value stood at 5.6e-11 M.

B5: the “IC50 … 5 pM hIL-25-MMH” value was 6.3e-11 M.
